The chains are these.
T1: Clathrin N‐terminal domain (NTD) (human, UniProt Q00610 1-364)
T1 chain: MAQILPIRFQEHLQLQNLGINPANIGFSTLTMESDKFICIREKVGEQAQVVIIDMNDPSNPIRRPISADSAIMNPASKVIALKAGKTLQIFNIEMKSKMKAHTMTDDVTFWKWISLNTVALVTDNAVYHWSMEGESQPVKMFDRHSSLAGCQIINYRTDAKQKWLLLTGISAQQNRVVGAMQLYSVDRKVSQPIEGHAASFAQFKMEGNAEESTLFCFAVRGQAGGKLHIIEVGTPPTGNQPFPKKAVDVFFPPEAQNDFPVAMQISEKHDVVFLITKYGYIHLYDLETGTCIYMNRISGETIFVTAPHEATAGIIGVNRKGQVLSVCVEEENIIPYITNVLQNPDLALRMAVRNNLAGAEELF

T2: TSG101 UEV (human, UniProt Q99816 2-145)
T2 chain: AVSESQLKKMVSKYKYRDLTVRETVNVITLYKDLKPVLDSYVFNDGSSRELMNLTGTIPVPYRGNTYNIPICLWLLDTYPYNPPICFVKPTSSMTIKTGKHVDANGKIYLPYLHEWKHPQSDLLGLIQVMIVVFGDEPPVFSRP

Non-standard residues stand in square brackets, D forms with d. No end group written: not given here. pS = N[C@@H](COP(=O)(O)O)C(=O)O

One assay deals with T1, Clathrin N‐terminal domain (NTD). Kind of assay: FP.
A word on the IC50: it is the concentration at which inhibition is half-maximal. Low readings indicate greater potency in that assay, high ones weaker potency in that assay. GGNLITF[pS]PLQPGEF [pS839 HURP_(832–846)] had an IC50 of 11 µM.
As for GGNLITFSPLQPGEF [HURP_(832–846), wild‐type], it took 318 µM to reach half-maximal inhibition (IC50).
GGNLITFEPLQPGEF [HURP_(832–846), phosphomimetic (E)] returned an IC50 of 70 µM.
YRHISFGGNLITF[pS]PLQPGEF [pS839 HURP_(826–846) peptide] registered an IC50 of 11 µM.

For another assay, the target named is SNX27 PDZ (human, UniProt Q96L92 43-136). Nature of the assay: FP.
Regarding NLLLERDTSFTVCPD [CDC25C_(30–44), wild‐type], the IC50 came out at 210 µM.
GMVSSTSFNGG [DAXX_(606–616), wild‐type] registered an IC50 of 1300 µM.
NLLLERDT[pS]FTVCPD [CDC25C_(30–44), phosphorylated (pS)] came in with an IC50 of 1000 µM.
Still for that read-out and setting: under NLLLERDTEFTVCPD [CDC25C_(30–44), phosphomimetic (E)] stands 1800 µM.

Another assay addresses MAP1LC3A (human). Nature of the assay: FP.
For KKQLKRFETEEFVLL [ATG4C_(444–458), phosphomimetic (E)], the IC50 worked out at 11 µM.
With KKQLKRFSTEEFVLL [ATG4C_(444–458), wild‐type], the IC50 worked out at 17 µM.
KKQLKRF[pS]TEEFVLL [ATG4C_(444–458), phosphorylated (pS)] yielded an IC50 of 5.5 µM.

The next assay deals with T2, TSG101 UEV. Nature of the assay: FP.
On to QSIAREPSAPSIPTP [PDCD6IP_(711–725), wild‐type], for which the IC50 was 34 µM.
For the molecule HSGNVTPTAPPYLQES [PIP4P2_(17–32), wild‐type], the IC50 was 29 µM.
Molecule NGCSSPTAPLSPMSP [GJA1_(269–283), wild‐type] came in with an IC50 of 465 µM.

Values taken from publication PMC10333884 (2023).
